These results are taken from the supplement of paper PMC7125110.

B1: glmS ribozyme (parent)
chain: AUAAAAGCGCCAGAACUACAGAAAUGUAGUUGACGAGGAGGAGGUUUAUCGAAUUUUCGGCGGAUGCCUCCAAA

± gives the standard error. Fewer inactive variants are shown than the library holds.

Details in all cases: with glucosamine-6-phosphate
In series [1] the parent is B1. Briefly: self-cleavage kobs at 40 uM GlcN6P; higher = faster cleavage; RNA array. In outline:
(§1)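 Glucosamine-6-phosphate, from 40 μM to 10 mM in HEPES/KCl/Mg(OAc)2 buffer, was flowed over sequenced MiSeq chips carrying barcoded ribozyme variants transcribed in situ by E. coli RNA polymerase. A hybridised Cy3 probe tracked the variants at 37 °C as tiles were imaged over ~14 h. kobs, kcat and KM were obtained by fitting normalised per-tile medians to exponential decays and then applying weighted Michaelis–Menten fits across concentrations.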

The variants in series [2] derive from B1. The series is described as follows: self-cleavage kobs at 160 uM GlcN6P; higher = faster cleavage; RNA array. The method, boiled down:
as §1

Variants of B1 are the subject of series [3]. The series is described as follows: self-cleavage kobs at 640 uM GlcN6P; higher = faster cleavage; RNA array. In outline:
as §1

In series [4] the parent is B1. Briefly: self-cleavage kobs at 2500 uM GlcN6P; higher = faster cleavage; RNA array. The method, boiled down:
as §1

The variants in series [5] derive from B1. The series is described as follows: self-cleavage kobs at 10000 uM GlcN6P; higher = faster cleavage; RNA array. The method, boiled down:
as §1

As to U30C U47C, the “self-cleavage kobs at 40 uM GlcN6P” value in series [1] was < 1e-05 s⁻¹. The “self-cleavage kobs at 160 uM GlcN6P” value in series [2] is < 1e-05 s⁻¹.
As for A12C G63A, in series [1], the “self-cleavage kobs at 40 uM GlcN6P” value is < 1e-05 s⁻¹. The “self-cleavage kobs at 160 uM GlcN6P” value in series [2] is < 1e-05 s⁻¹. In addition, the “self-cleavage kobs at 640 uM GlcN6P” value in series [3] is < 1e-05 s⁻¹. Moreover, in series [4], the “self-cleavage kobs at 2500 uM GlcN6P” value is < 1e-05 s⁻¹. Moreover, the “self-cleavage kobs at 10000 uM GlcN6P” value in series [5] is < 1e-05 s⁻¹.
On to A33G G51A, for which, in series [1], the “self-cleavage kobs at 40 uM GlcN6P” value was < 1e-05 s⁻¹. The “self-cleavage kobs at 160 uM GlcN6P” value in series [2] is < 1e-05 s⁻¹. Also, the “self-cleavage kobs at 2500 uM GlcN6P” value in series [4] was < 1e-05 s⁻¹. The “self-cleavage kobs at 10000 uM GlcN6P” value in series [5] is < 1e-05 s⁻¹.
For the variant G38A C58U G59U, the “self-cleavage kobs at 40 uM GlcN6P” value in series [1] was < 1e-05 s⁻¹. The “self-cleavage kobs at 10000 uM GlcN6P” value in series [5] was < 1e-05 s⁻¹.
With C8G C11U A48U U57G C71U, the “self-cleavage kobs at 160 uM GlcN6P” value in series [2] is < 1e-05 s⁻¹.
Regarding G13C G43U A52U, the “self-cleavage kobs at 40 uM GlcN6P” value in series [1] was < 1e-05 s⁻¹. Moreover, the “self-cleavage kobs at 640 uM GlcN6P” value in series [3] was < 1e-05 s⁻¹. The “self-cleavage kobs at 2500 uM GlcN6P” value in series [4] was < 1e-05 s⁻¹. Moreover, the “self-cleavage kobs at 10000 uM GlcN6P” value in series [5] was < 1e-05 s⁻¹.
For A52C C68G, the “self-cleavage kobs at 40 uM GlcN6P” value in series [1] was found to be 4.36e-05 ± 1.5e-05 s⁻¹. The “self-cleavage kobs at 640 uM GlcN6P” value in series [3] is 0.000126 ± 3.5e-05 s⁻¹. Moreover, in series [5], the “self-cleavage kobs at 10000 uM GlcN6P” value amounted to 2.34e-05 ± 1.1e-05 s⁻¹.
Consider C11A U49G C67G, for which, in series [1], the “self-cleavage kobs at 40 uM GlcN6P” value was found to be 4.47e-05 ± 1.8e-05 s⁻¹.
For the variant A14G C71G, the “self-cleavage kobs at 40 uM GlcN6P” value in series [1] stood at 0.00028 ± 3.6e-05 s⁻¹. Further, in series [2], the “self-cleavage kobs at 160 uM GlcN6P” value was determined as 0.000718 ± 0.00016 s⁻¹. Besides, the “self-cleavage kobs at 640 uM GlcN6P” value in series [3] was 0.00058 ± 7.9e-05 s⁻¹. Besides, the “self-cleavage kobs at 10000 uM GlcN6P” value in series [5] came to 0.00586 ± 0.0014 s⁻¹.
Take G35C G40U A64U: the “self-cleavage kobs at 40 uM GlcN6P” value in series [1] is < 1e-05 s⁻¹. In addition, the “self-cleavage kobs at 160 uM GlcN6P” value in series [2] was < 1e-05 s⁻¹. The “self-cleavage kobs at 2500 uM GlcN6P” value in series [4] is < 1e-05 s⁻¹.
As for G29A A48G, the “self-cleavage kobs at 40 uM GlcN6P” value in series [1] was < 1e-05 s⁻¹. Further, in series [2], the “self-cleavage kobs at 160 uM GlcN6P” value was < 1e-05 s⁻¹. Also, in series [3], the “self-cleavage kobs at 640 uM GlcN6P” value is < 1e-05 s⁻¹.
C34U G59A: in series [1], the “self-cleavage kobs at 40 uM GlcN6P” value was < 1e-05 s⁻¹. The “self-cleavage kobs at 640 uM GlcN6P” value in series [3] is < 1e-05 s⁻¹. Also, the “self-cleavage kobs at 2500 uM GlcN6P” value in series [4] is < 1e-05 s⁻¹.
Take C34G G41C G66U: the “self-cleavage kobs at 40 uM GlcN6P” value in series [1] was < 1e-05 s⁻¹. Besides, the “self-cleavage kobs at 10000 uM GlcN6P” value in series [5] is < 1e-05 s⁻¹.
For the variant G7A G41A, in series [1], the “self-cleavage kobs at 40 uM GlcN6P” value was < 1e-05 s⁻¹. In addition, in series [2], the “self-cleavage kobs at 160 uM GlcN6P” value was < 1e-05 s⁻¹. For the same variant, in series [3], the “self-cleavage kobs at 640 uM GlcN6P” value was < 1e-05 s⁻¹. Further, in series [4], the “self-cleavage kobs at 2500 uM GlcN6P” value is < 1e-05 s⁻¹. In addition, the “self-cleavage kobs at 10000 uM GlcN6P” value in series [5] is < 1e-05 s⁻¹.
Regarding U56A U69C, in series [1], the “self-cleavage kobs at 40 uM GlcN6P” value was 0.000222 ± 5.9e-05 s⁻¹. Besides, the “self-cleavage kobs at 160 uM GlcN6P” value in series [2] was 0.000288 ± 6e-05 s⁻¹. In addition, the “self-cleavage kobs at 640 uM GlcN6P” value in series [3] was 0.000693 ± 0.00019 s⁻¹. In series [4], the “self-cleavage kobs at 2500 uM GlcN6P” value was 0.000572 ± 0.00015 s⁻¹. Also, in series [5], the “self-cleavage kobs at 10000 uM GlcN6P” value came to 0.00286 ± 0.00081 s⁻¹.
As to C10A G32C, in series [1], the “self-cleavage kobs at 40 uM GlcN6P” value is < 1e-05 s⁻¹. Besides, the “self-cleavage kobs at 640 uM GlcN6P” value in series [3] was < 1e-05 s⁻¹. Further, in series [4], the “self-cleavage kobs at 2500 uM GlcN6P” value is < 1e-05 s⁻¹.
As to C10G G51A, the “self-cleavage kobs at 40 uM GlcN6P” value in series [1] is < 1e-05 s⁻¹. In series [3], the “self-cleavage kobs at 640 uM GlcN6P” value was < 1e-05 s⁻¹. Moreover, the “self-cleavage kobs at 2500 uM GlcN6P” value in series [4] is < 1e-05 s⁻¹. Moreover, in series [5], the “self-cleavage kobs at 10000 uM GlcN6P” value was < 1e-05 s⁻¹.
On to C16A C70U, for which the “self-cleavage kobs at 40 uM GlcN6P” value in series [1] came out at 5.31e-05 ± 7.6e-06 s⁻¹. Besides, the “self-cleavage kobs at 160 uM GlcN6P” value in series [2] is 0.000117 ± 3.3e-05 s⁻¹. Also, in series [3], the “self-cleavage kobs at 640 uM GlcN6P” value stood at 0.000192 ± 2.7e-05 s⁻¹. Further, the “self-cleavage kobs at 2500 uM GlcN6P” value in series [4] was found to be 0.000365 ± 5.1e-05 s⁻¹. In addition, the “self-cleavage kobs at 10000 uM GlcN6P” value in series [5] was determined as 0.0015 ± 0.00026 s⁻¹.
On to G7C A15G A36U, for which, in series [1], the “self-cleavage kobs at 40 uM GlcN6P” value is < 1e-05 s⁻¹. Moreover, in series [3], the “self-cleavage kobs at 640 uM GlcN6P” value is < 1e-05 s⁻¹. Moreover, in series [5], the “self-cleavage kobs at 10000 uM GlcN6P” value was < 1e-05 s⁻¹.
For C10U G43U U57G, in series [1], the “self-cleavage kobs at 40 uM GlcN6P” value was < 1e-05 s⁻¹. Further, the “self-cleavage kobs at 10000 uM GlcN6P” value in series [5] is < 1e-05 s⁻¹.
